The source of these data is patent publication US20220064284A1 (Janssen / Centocor, published 2022).

One assay has as its target T1, GP5B305.
T1 construct: Used as the analyte in the ProteOn assay ('Antigens (scFV Fc Fusions)'); not shown: Hinge/Fc of HC2; all of HC1 (CD3B376 Fab heavy chain with C-terminal BCMB516-LH-scFv); CD3B376 light chain
The assay can be described thus: SPR (ProteOn XPR36), mAb captured on anti-mouse Fc, antigen 50 nM to 0.2 nM in solution. On the procedure: ProteOn XPR36 system (BioRad) was used to perform binding assays. ProteOn GLC chips (BioRad, Cat #176-5011) were coated with Anti-Mouse Fc antibody. Library Antibodies (Mouse IgG2a) diluted to 0.25 ug/ml to 1 ug/ml to reach approximately 100-200RL. Antigens (scFV Fc Fusions) are associated at 50 nM to 0.2 nM, 1:4 dilutions for 3 minutes. Dissociation for 30 mins. The results of the assay (Table 1 below) show picomolar affinity of GP5B318 with GP5B305. GP5B305 is a bi-specific antibody that includes HCl N-Terminal CD3B376-Fab/C-Terminal BCMB516-LH-scFv* and HC2 N-Terminal GP5B83 N23T, N30S-LH-scFv*.

The target in assay [1] is T2, GPRC5D CAR GP5DB83-HL expressed on SupT1 cells.
T2 construct: Chimeric antigen receptor with the GP5B83 scFv in VH-VL order; also called GP5DB83-HL CAR; CAR 1 (GP5B83-HL)
T2 sequence (chain, as listed by the source limits assumed): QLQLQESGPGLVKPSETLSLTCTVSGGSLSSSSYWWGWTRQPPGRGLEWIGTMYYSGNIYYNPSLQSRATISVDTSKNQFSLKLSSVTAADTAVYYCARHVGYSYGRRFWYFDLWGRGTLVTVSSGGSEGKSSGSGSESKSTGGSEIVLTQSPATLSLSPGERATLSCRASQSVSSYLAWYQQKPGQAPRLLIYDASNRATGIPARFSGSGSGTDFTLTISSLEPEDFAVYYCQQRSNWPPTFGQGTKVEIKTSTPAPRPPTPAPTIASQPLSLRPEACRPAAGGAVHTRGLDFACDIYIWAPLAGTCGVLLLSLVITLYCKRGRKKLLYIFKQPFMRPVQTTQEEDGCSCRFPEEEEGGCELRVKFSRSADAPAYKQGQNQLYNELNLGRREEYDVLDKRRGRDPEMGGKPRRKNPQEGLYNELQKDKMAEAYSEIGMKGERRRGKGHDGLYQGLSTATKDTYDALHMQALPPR
In words: flow cytometry on GPRC5D CAR (GP5DB83-HL) SupT1 cells, unconjugated GP5B318 detected with PE-goat anti-mouse IgG, PE MFI. On the procedure: SupT1 cells expressing GP5DB83-HL were compared to parental CAR-SupT1 cells. SupT1 cells expressing GP5DB83-HL and parental CAR-SupT1 cells were stained with near IR LIVE/DEAD fluorescent reactive dye on ice for 20 mins. After incubation, the cells were washed and resuspended in BSA stain buffer Cells (100,000 cells/well) were plated in a 96 well plate and incubated with increasing concentrations of GP5B318 for 30 minutes on ice with and without 10 μg/mL CAR-Fc Fusion protein, GP5B83_N24T_N315-HL-hu Fc-scFv (GP5B30.002). Following incubation, the samples were washed with BSA stain buffer and stained with PE-goat anti-mouse IgG polyclonal to detect bound antibody on live SupT1 cells. After incubation, washing, and fixation, the samples were acquired on a 10 color FACSCanto II flow cytometer. Analysis was done using FlowJo and the PE median fluorescent intensity of live SupT1 cells is plotted in FIG. 3. […] No binding was detected on CAR-SupT1 parental cells.

Assay [2] has as its target T2, GPRC5D CAR GP5DB83-HL expressed on …. The assay can be described thus: flow cytometry on GPRC5D CAR (GP5DB83-HL) SupT1 cells, directly PE-conjugated GP5B318, PE MFI. Here is the method: GP5B318 was conjugated to R-PE as described above and tested for binding to GP5DB83-HL SupT1 in the presence or absence of 10 μg/mL GP5DB83-scFv Fc fusion protein to assess the specificity of GP5B318 binding to GP5DB83-HL CAR and ensure CAR detection was not affected by PE labeling. GP5DB83-HL SupT1 cells were stained with near IR LIVE/DEAD fluorescent reactive dye in 50 mL tube on ice for 20 mins. After incubation, the cells were washed and resuspended in BSA stain buffer to 2×10⁶ cells/mL. 100,000 cells/well were seeded in 96 well plate and incubated with increasing concentrations of PE-GP5B318 and 10 μg/mL GP5DB83-scFv Fc for 45 minutes on ice. After incubation, washing, and fixation, the samples were acquired on a 10 color FACSCanto II flow cytometer. Analysis was performed using FlowJo analysis software and the PE median fluorescent intensity of live SupT1 cells is plotted in FIG. 4.

T1 sequence (scFv, as listed by the source limits assumed): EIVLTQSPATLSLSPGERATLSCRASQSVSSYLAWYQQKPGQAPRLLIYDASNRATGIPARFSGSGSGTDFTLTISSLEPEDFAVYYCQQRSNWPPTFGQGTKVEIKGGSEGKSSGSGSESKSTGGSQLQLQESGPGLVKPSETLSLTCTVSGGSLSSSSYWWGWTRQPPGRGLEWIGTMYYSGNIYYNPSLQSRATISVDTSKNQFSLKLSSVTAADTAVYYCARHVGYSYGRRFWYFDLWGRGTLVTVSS

B1: GP5B318 (antibody, mouse IgG2a, kappa, V domains shown)
VH: EVQLVQSGAEVKKPGESLKISCKGSGYSFTSYWIGWVRQMPGKGLEWMGIIYPGDSDTRYSPSFQGQVTISADKSISTAYLQWSSLKASDTAMYYCARGWDYGTGEFDYWGQGTLVTVSS
VL: EIVLTQSPGTLSLSPGERATLSCRASQSIGNWLNWYQQKPGKAPKLLIYYASSLQSGVPSRFSGSGSGTDFTLTISSLQPEDFAVYYCQQSLSFPITFGQGTKVEIKR
notes: made in HEK293 Expi or CHO; also called anti-idiotypic antibody GP5B318; chimeric mAb with human VH/VL and murine IgG2a/k
As to B1, in the assay with GP5B305, the Kd was less than 2.9 pM, the koff was less than 2.9e-05 s⁻¹ and the kon is more than 1e+07 M⁻¹ s⁻¹. Besides, the concentration giving a half-maximal response (EC50) in assay [1] worked out at 0.03 µg/mL.

B2: PE-GP5B318 (antibody, mouse IgG2a, kappa, V domains shown)
VH: B1 VH
VL: B1 VL
modifications: antibody conjugated to R-phycoerythrin, purified to a 1:1 PE:antibody ratio; site not stated
notes: GP5B318 labelled with phycoerythrin (Expedeon kit); also called PE-P5B318; GP5B318 conjugated to R-PE
In turn, B2 displayed an EC50 in assay [2] of 0.1 µg/mL.
